Target: T1, high molecular weight kininogen (HK), purified protein used in ELISA (human, UniProt P01042 19-644)
T1 sequence (looked up): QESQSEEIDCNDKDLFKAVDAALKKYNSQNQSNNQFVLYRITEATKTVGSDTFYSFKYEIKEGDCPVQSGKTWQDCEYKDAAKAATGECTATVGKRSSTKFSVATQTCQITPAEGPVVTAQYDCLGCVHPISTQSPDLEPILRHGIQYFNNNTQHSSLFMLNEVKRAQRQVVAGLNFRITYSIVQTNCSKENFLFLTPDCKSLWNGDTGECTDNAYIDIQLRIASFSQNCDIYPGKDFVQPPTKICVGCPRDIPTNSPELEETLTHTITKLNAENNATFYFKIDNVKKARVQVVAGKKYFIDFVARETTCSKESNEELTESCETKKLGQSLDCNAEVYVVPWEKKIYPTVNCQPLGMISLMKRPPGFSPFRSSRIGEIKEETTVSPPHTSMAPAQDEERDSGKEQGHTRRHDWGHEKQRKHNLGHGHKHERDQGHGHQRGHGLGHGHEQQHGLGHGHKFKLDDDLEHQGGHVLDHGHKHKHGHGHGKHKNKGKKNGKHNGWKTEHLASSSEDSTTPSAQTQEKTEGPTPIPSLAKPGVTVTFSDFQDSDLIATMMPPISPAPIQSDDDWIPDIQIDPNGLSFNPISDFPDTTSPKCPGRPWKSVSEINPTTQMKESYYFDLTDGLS
Assay: ELISA

binding result: binds
B1: prekallikrein (PK), purified protein used in ELISA (natural protein)
chain: not shown

Source: article PMC9131899 (Blood Advances, 2022)
